These results are taken from the supplement of paper PMC5998384.

Data set [1] has as its system HeLa Kyoto. The data set is described as follows: solubility change mitosis vs G1/S (difference of NP-40 vs SDS log2 ratios) (log2 ratio difference); higher = more soluble in mitosis.
The test system of data set [2] is HeLa Kyoto. As to the kind of experiment: solubility in G1/S (NP-40 vs SDS abundance) (log2 ratio); higher = more soluble. The settings on record: cell cycle stage: G1/S.
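For solubility change mitosis vs G1/S (difference of NP-40 vs SDS log2 ratios) in this document: synchronized HeLa Kyoto cells (double thymidine block for G1/S, nocodazole release for mitosis), protein amounts in NP-40 versus SDS lysates quantified by mass spectrometry, three biological replicates.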
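For solubility in G1/S (NP-40 vs SDS abundance) in this document: HeLa Kyoto cells arrested at G1/S by double thymidine block, proteins quantified by TMT10plex mass spectrometry in mild NP-40 versus SDS extracts, three biological replicates.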

Sequence of UBE2D1 (chain, as listed by the source): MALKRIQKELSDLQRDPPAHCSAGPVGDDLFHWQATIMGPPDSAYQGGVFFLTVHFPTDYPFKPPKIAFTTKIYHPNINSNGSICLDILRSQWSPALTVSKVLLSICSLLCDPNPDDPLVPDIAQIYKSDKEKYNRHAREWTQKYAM
Sequence of KLF16 (chain, as listed by the source): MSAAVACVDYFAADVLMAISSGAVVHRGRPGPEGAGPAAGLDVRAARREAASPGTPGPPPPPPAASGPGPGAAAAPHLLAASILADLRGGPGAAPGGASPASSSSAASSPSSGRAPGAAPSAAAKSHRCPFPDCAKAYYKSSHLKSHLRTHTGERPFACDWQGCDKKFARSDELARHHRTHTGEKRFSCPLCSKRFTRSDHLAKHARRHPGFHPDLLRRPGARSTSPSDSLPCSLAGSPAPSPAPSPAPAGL

In the case of “MQLRKMQTVKKEQASLDASSNVDKMMVLNSALTEVSEDSTTGEELLLSEGSVGKNKSSACRRKREFIPDEKKDAMYWEKRRKNNEAAKRSREKRRLNDLVLENKLIALGEENATLKAELLSLKLKFGLISSTAYAQEIQKLSNSTAVYFQDYQTSKSNVSSFVDEHEPSMVSSSCISVIKHSPQSSLSDVSEVSSVEHTQESSVQGSCRSPENKFQIIKQEPMELESYTREPRDDRGSYTASIYQNYMGNSFSGYSHSPPLLQVNRSSSNSPRTSETDDGVVGKSSDGEDEQQVPKGPIHSPVELKHVHATVVKVPEVNSSALPHKLRIKAKAMQIKVEAFDNEFEATQKLSSPIDMTSKRHFELEKHSAPSMVHSSLTPFSVQVTNIQDWSLKSEHWHQKELSGKTQNSFKTGVVEMKDSGYKVSDPENLYLKQGIANLSAEVVSLKRLIATQPISASDSG [NFIL3]”, the “solubility change mitosis (log2)” value in data set [1] was 0.104. Also, the “solubility in G1/S (log2)” value in data set [2] amounted to 0.00864.
The corresponding values for “METAPKPGKDVPPKKDKLQTKRKKPRRYWEEETVPTTAGASPGPPRNKKNRELRPQRPKNAYILKKSRISKKPQVPKKPREWKNPESQRGLSGTQDPFPGPAPVPVEVVQKFCRIDKSRKLPHSKAKTRSRLEVAEAEEEETSIKAARSELLLAEEPGFLEGEDGEDTAKICQADIVEAVDIASAAKHFDLNLRQFGPYRLNYSRTGRHLAFGGRRGHVAALDWVTKKLMCEINVMEAVRDIRFLHSEALLAVAQNRWLHIYDNQGIELHCIRRCDRVTRLEFLPFHFLLATASETGFLTYLDVSVGKIVAALNARAGRLDVMSQNPYNAVIHLGHSNGTVSLWSPAMKEPLAKILCHRGGVRAVAVDSTGTYMATSGLDHQLKIFDLRGTYQPLSTRTLPHGAGHLAFSQRGLLVAGMGDVVNIWAGQGKASPPSLEQPYLTHRLSGPVHGLQFCPFEDVLGVGHTGGITSMLVPGAGEPNFDGLESNPYRSRKQRQEWEVKALLEKVPAELICLDPRALAEVDVISLEQGKKEQIERLGYDPQAKAPFQPKPKQKGRSSTASLVKRKRKVMDEEHRDKVRQSLQQQHHKEAKAKPTGARPSALDRFVR [WDR46]” are 0.592 and -1.25.
As for “MRGPSGALWLLLALRTVLGGMEVRWCATSDPEQHKCGNMSEAFREAGIQPSLLCVRGTSADHCVQLIAAQEADAITLDGGAIYEAGKEHGLKPVVGEVYDQEVGTSYYAVAVVRRSSHVTIDTLKGVKSCHTGINRTVGWNVPVGYLVESGRLSVMGCDVLKAVSDYFGGSCVPGAGETSYSESLCRLCRGDSSGEGVCDKSPLERYYDYSGAFRCLAEGAGDVAFVKHSTVLENTDGKTLPSWGQALLSQDFELLCRDGSRADVTEWRQCHLARVPAHAVVVRADTDGGLIFRLLNEGQRLFSHEGSSFQMFSSEAYGQKDLLFKDSTSELVPIATQTYEAWLGHEYLHAMKGLLCDPNRLPPYLRWCVLSTPEIQKCGDMAVAFRRQRLKPEIQCVSAKSPQHCMERIQAEQVDAVTLSGEDIYTAGKTYGLVPAAGEHYAPEDSSNSYYVVAVVRRDSSHAFTLDELRGKRSCHAGFGSPAGWDVPVGALIQRGFIRPKDCDVLTAVSEFFNASCVPVNNPKNYPSSLCALCVGDEQGRNKCVGNSQERYYGYRGAFRCLVENAGDVAFVRHTTVFDNTNGHNSEPWAAELRSEDYELLCPNGARAEVSQFAACNLAQIPPHAVMVRPDTNIFTVYGLLDKAQDLFGDDHNKNGFKMFDSSNYHGQDLLFKDATVRAVPVGEKTTYRGWLGLDYVAALEGMSSQQCSGAAAPAPGAPLLPLLLPALAARLLPPAL [MFI2]”, the “solubility change mitosis (log2)” value in data set [1] is -0.0542. Besides, the “solubility in G1/S (log2)” value in data set [2] is -0.519.
The like results for “MSRQTATALPTGTSKCPPSQRVPALTGTTASNNDLASLFECPVCFDYVLPPILQCQSGHLVCSNCRPKLTCCPTCRGPLGSIRNLAMEKVANSVLFPCKYASSGCEITLPHTEKADHEELCEFRPYSCPCPGASCKWQGSLDAVMPHLMHQHKSITTLQGEDIVFLATDINLPGAVDWVMMQSCFGFHFMLVLEKQEKYDGHQQFFAIVQLIGTRKQAENFAYRLELNGHRRRLTWEATPRSIHEGIATAIMNSDCLVFDTSIAQLFAENGNLGINVTISMC [SIAH1]” were, in that order, -0.11 and 0.247.
The like results for UBE2D1 were, in that order, -0.0476 and 0.473.
Take “MGLYGQACPSVTSLRMTSELESSLTSMDWLPQLTMRAAIQKSDATQNAHGTGISKKNALLDPNTTLDQEEVQQHKDGKPPYSYASLITFAINSSPKKKMTLSEIYQWICDNFPYYREAGSGWKNSIRHNLSLNKCFLKVPRSKDDPGKGSYWAIDTNPKEDVLPTRPKKRARSVERASTPYSIDSDSLGMECIISGSASPTLAINTVTNKVTLYNTDQDGSDSPRSSLNNSLSDQSLASVNLNSVGSVHSYTPVTSHPESVSQSLTPQQQPQYNLPERDKQLLFSEYNFEDLSASFRSLYKSVFEQSLSQQGLMNIPSESSQQSHTSCTYQHSPSSTVSTHPHSNQSSLSNSHGSGLNTTGSNSVAQVSLSHPQMHTQPSPHPPHRPHGLPQHPQRSPHPAPHPQQHSQLQSPHPQHPSPHQHIQHHPNHQHQTLTHQAPPPPQQVSCNSGVSNDWYATLDMLKESCRIASSVNWSDVDLSQFQGLMESMRQADLKNWSLDQVQFADLCSSLNQFFTQTGLIHSQSNVQQNVCHGAMHPTKPSQHIGTGNLYIDSRQNLPPSVMPPPGYPHIPQALSTPGTTMAGHHRAMNQQHMMPSQAFQMRRSLPPDDIQDDFDWDSIV [FOXJ3]”: the “solubility change mitosis (log2)” value in data set [1] turned out to be 0.0825. In data set [2], the “solubility in G1/S (log2)” value worked out at 0.664.
The like results for KLF16 were, in that order, 0.0196 and 0.106.
Regarding “MASPEPRRGGDGAAQAARKTRVEANSPLPKNSGSLNEAEALNPEVTLSSEGSLNLEDILYLEDTGDLDETLYVQETEKAEEALYIEEAMQPDEALHVEEPGNPEETVCVEETTEPDRIQFVEGPVEPGKPTSPEHVVYEGETVTRAEKSNPEESLRAEQSPSMEENLSIEDLELLEGRFQQCVQAVAQLEEERDQLIHELVLLREPALQEVQQVHQDILAAYKLHAQAELERDGLREEIRLVKQKLFKVTKECVAYQYQLECRQQDVAQFADFREVLTTRATQLSEELAQLRDAYQKQKEQLRQQLEAPPSQRDGHFLQESRRLSAQFENLMAESRQDLEEEYEPQFLRLLERKEAGTKALQRTQAEIQEMKEALRPLQAEARQLRLQNRNLEDQIALVRQKRDEEVQQYREQLEEMEERQRQLRNGVQLQQQKNKEMEQLRLSLAEELSTYKAMLLPKSLEQADAPTSQAGGMETQSQGAV [SYNC]”, the “solubility change mitosis (log2)” value in data set [1] came out at 0.0968. The “solubility in G1/S (log2)” value in data set [2] is 0.502.
Consider “MHPGGGPSRAERLELGLGRERPAKAIFLHRRPGEGGGRERCLRCGHVCVRRGPGPREAVPSGRPRPDTLTPPWVRQRAVTGTFCASWTPLRNRRAQRMATDMQRKRSSECLDGTLTPSDGQSMERAESPTPGMAQGMEPGAGQEGAMFVHARSYEDLTESEDGAASGDSHKEGTRGPPPLPTDMRQISQDFSELSTQLTGVARDLQEEMLPGSSEDWLEPPGAVGRPATEPPREGTTEGDEEDATEAWRLHQKHVFVLSEAGKPVYSRYGSEEALSSTMGVMVALVSFLEADKNAIRSIHADGYKVVFVRRSPLVLVAVARTRQSAQELAQELLYIYYQILSLLTGAQLSHIFQQKQNYDLRRLLSGSERITDNLLQLMARDPSFLMGAARCLPLAAAVRDTVSASLQQARARSLVFSILLARNQLVALVRRKDQFLHPIDLHLLFNLISSSSSFREGEAWTPVCLPKFNAAGFFHAHISYLEPDTDLCLLLVSTDREDFFAVSDCRRRFQERLRKRGAHLALREALRTPYYSVAQVGIPDLRHFLYKSKSSGLFTSPEIEAPYTSEEEQERLLGLYQYLHSRAHNASRPLKTIYYTGPNENLLAWVTGAFELYMCYSPLGTKASAVSAIHKLMRWIRKEEDRLFILTPLTY [MON1A]”, for which the “solubility change mitosis (log2)” value in data set [1] is -0.081. In data set [2], the “solubility in G1/S (log2)” value worked out at 0.0361.
The like results for “MATPRGRTKKKASFDHSPDSLPLRSSGRQAKKKATETTDEDEDGGSEKKYRKCEKAGCTATCPVCFASASERCAKNGYTSRWYHLSCGEHFCNECFDHYYRSHKDGYDKYTTWKKIWTSNGKTEPSPKAFMADQQLPYWVQCTKPECRKWRQLTKEIQLTPQIAKTYRCGMKPNTAIKPETSDHCSLPEDLRVLEVSNHWWYSMLILPPLLKDSVAAPLLSAYYPDCVGMSPSCTSTNRAAATGNASPGKLEHSKAALSVHVPGMNRYFQPFYQPNECGKALCVRPDVMELDELYEFPEYSRDPTMYLALRNLILALWYTNCKEALTPQKCIPHIIVRGLVRIRCVQEVERILYFMTRKGLINTGVLSVGADQYLLPKDYHNKSVIIIGAGPAGLAAARQLHNFGIKVTVLEAKDRIGGRVWDDKSFKGVTVGRGAQIVNGCINNPVALMCEQLGISMHKFGERCDLIQEGGRITDPTIDKRMDFHFNALLDVVSEWRKDKTQLQDVPLGEKIEEIYKAFIKESGIQFSELEGQVLQFHLSNLEYACGSNLHQVSARSWDHNEFFAQFAGDHTLLTPGYSVIIEKLAEGLDIQLKSPVQCIDYSGDEVQVTTTDGTGYSAQKVLVTVPLALLQKGAIQFNPPLSEKKMKAINSLGAGIIEKIALQFPYRFWDSKVQGADFFGHVPPSASKRGLFAVFYDMDPQKKHSVLMSVIAGEAVASVRTLDDKQVLQQCMATLRELFKEQEVPDPTKYFVTRWSTDPWIQMAYSFVKTGGSGEAYDIIAEDIQGTVFFAGEATNRHFPQTVTGAYLSGVREASKIAAF [KDM1B]” were, in that order, 0.0563 and -0.371.
The like results for “MADSSGRGAGKPATGPTNSSSAKKKDKRVQGGRVIESRYLQYEKKTTQKAPAGDGSQTRGKMSEGGRKSSLLQKSKADSSGVGKGDLQSTLLEGHGTAPPDLDLSAINDKSIVKKTPQLAKTISKKPESTSFSAPRKKSPDLSEAMEMMESQTLLLTLLSVKMENNLAEFERRAEKNLLIMCKEKEKLQKKAHELKRRLLLSQRKRELADVLDAQIEMLSPFEAVATRFKEQYRTFATALDTTRHELPVRSIHLEGDGQQLLDALQHELVTTQRLLGELDVGDSEENVQVLDLLSELKDVTAKKDLELRRSFAQVLELSAEASKEAALANQEVWEETQGMAPPSRWYFNQDSACRESGGAPKNTPLSEDDNPGASSAPAQATFISPSEDFSSSSQAEVPPSLSRSGRDLS [HAUS8]” were, in that order, 0.189 and 0.514.
The corresponding values for “MNMIWRNSISCLRLGKVPHRYQSGYHPVAPLGSRILTDPAKVFEHNMWDHMQWSKEEEAAARKKVKENSAVRVLLEEQVKYEREASKYWDTFYKIHKNKFFKDRNWLLREFPEILPVDQKPEEKARESSWDHVKTSATNRFSRMHCPTVPDEKNHYEKSSGSSEGQSKTESDFSNLDSEKHKKGPMETGLFPGSNATFRILEVGCGAGNSVFPILNTLENSPESFLYCCDFASGAVELVKSHSSYRATQCFAFVHDVCDDGLPYPFPDGILDVILLVFVLSSIHPDRTLFI [METTL8]” are 0.054 and -0.312.
As for “MASRWQNMGTSVRRRSLQHQEQLEDSKELQPVVSHQETSVGALGSLCRQFQRRLPLRAVNLNLRAGPSWKRLETPEPGQQGLQAAARSAKSALGAVSQRIQESCQSGTKWLVETQVKARRRKRGAQKGSGSPTHSLSQKSTRLSGAAPAHSAADPWEKEHHRLSVRMGSHAHPLRRSRREAAFRSPYSSTEPLCSPSESDSDLEPVGAGIQHLQKLSQELDEAIMAEERKQALSDRQGFILKDVYASP [FAM64A]”, in data set [1], the “solubility change mitosis (log2)” value came to 0.481. Also, the “solubility in G1/S (log2)” value in data set [2] was determined as 0.000622.
On to MYLK, for which the “solubility change mitosis (log2)” value in data set [1] came out at 0.101. The “solubility in G1/S (log2)” value in data set [2] is -0.635.
